Source: US20250361296A1 (BIOCYTOGEN PHARMACEUTICALS BEIJING, published 2025)
Blank lines part the entries; values can stand above or below the binder they belong to.

Key:
Test in all cases: flow cytometry, CHO-S cells expressing the target; for Percentage of Positive Cells: test concentration or dose not given here
[1] = biological target: T1, human SIGLEC16 on CHO-S-hSIGLEC16 cells (human, UniProt A6NMB1 17-434)
T1 chain: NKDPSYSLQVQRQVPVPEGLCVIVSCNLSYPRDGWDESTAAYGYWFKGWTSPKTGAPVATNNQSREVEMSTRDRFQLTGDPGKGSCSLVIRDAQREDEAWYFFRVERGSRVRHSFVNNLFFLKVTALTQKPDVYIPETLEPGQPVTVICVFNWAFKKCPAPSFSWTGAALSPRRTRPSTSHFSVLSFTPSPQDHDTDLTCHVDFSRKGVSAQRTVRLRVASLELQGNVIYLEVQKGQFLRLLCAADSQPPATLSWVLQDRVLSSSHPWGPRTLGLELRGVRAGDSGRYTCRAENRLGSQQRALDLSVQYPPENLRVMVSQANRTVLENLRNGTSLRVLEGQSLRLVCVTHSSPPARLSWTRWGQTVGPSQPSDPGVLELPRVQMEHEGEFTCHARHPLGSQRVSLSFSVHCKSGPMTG
Description: (§1) CHO-S-hSIGLEC15 cells, CHO-S-mSIGLEC15 cells, CHO-S-fasSIGLEC15 cells or CHO-S-dSIGLEC15 cells were transferred to a 96-well plate at a density of 5×10⁴ cells/well respectively. Serially diluted sample anti-SIGLEC15 antibodies were added to the 96-well plate, and incubated at 4° C. for 30 min. Then, the cells were incubated with the secondary antibody anti-hIgG-Fc-Alex Flour 647 (RL1-H) (Jackson ImmunoResearch Laboratories, Inc., 109-606-170) at 4° C. in the dark for 15 minutes before flow cytometry analysis.
(§2) Another similar experiment was performed to determine whether the anti-SIGLEC15 antibodies can bind with other SIGLEC family proteins. CHO-S-hSIGLEC1 cells (expressing hSIGLEC1, SEQ ID NO: 49)), CHO-S-hSIGLEC2 cells (expressing hSIGLEC2, SEQ ID NO: 50), CHO-S-hSIGLEC4 cells (expressing hSIGLEC4, SEQ ID NO: 51), CHO-S-hSIGLEC5 cells (expressing hSIGLEC5, SEQ ID NO: 52), CHO-S-hSIGLEC6 cells (expressing hSIGLEC6, SEQ ID NO: 53), CHO-S-hSIGLEC7 cells (expressing hSIGLEC7, SEQ ID NO: 54), CHO-S-hSIGLEC8 cells (expressing hSIGLEC8, SEQ ID NO: 55), CHO-S-hSIGLEC9 cells (expressing hSIGLEC9, SEQ ID NO: 56), CHO-S-hSIGLEC10 cells (expressing hSIGLEC10, SEQ ID NO: 57), CHO-S-hSIGLEC11 cells (expressing hSIGLEC11, SEQ ID NO: 58), CHO-S-hSIGLEC12 cells (expressing hSIGLEC12, SEQ ID NO: 59), CHO-S-hSIGLEC14 cells (expressing hSIGLEC14, SEQ ID NO: 60) or CHO-S-hSIGLEC16 cells (expressing hSIGLEC16, SEQ ID NO: 61) were used.

[2] = biological target: T2, human SIGLEC2 on CHO-S-hSIGLEC2 cells (human, UniProt P20273 20-687)
T2 sequence: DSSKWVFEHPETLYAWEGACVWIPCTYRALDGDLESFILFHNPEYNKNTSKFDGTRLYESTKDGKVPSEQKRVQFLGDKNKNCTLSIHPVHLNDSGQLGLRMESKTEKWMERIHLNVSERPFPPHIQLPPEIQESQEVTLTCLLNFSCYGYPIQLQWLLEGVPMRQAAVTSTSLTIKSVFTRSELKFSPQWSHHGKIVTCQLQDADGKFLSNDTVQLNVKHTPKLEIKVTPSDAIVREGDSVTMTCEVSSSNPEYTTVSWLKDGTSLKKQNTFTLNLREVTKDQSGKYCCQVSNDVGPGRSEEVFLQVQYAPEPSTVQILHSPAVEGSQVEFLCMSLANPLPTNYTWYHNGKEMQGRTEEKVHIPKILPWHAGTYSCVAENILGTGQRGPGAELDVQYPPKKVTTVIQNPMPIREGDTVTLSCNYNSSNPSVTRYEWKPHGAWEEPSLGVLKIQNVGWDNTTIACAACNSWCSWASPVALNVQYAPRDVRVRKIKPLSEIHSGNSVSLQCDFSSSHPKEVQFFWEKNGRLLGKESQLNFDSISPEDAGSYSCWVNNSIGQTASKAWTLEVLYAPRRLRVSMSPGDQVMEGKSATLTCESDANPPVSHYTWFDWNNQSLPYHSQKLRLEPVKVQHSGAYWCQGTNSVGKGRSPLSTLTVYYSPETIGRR
Description: as §1, §2

[3] = biological target: human SIGLEC1 on CHO-S-hSIGLEC1 cells (human, UniProt Q9BZZ2 20-1641)
Description: as §1, §2

[4] = biological target: human SIGLEC7 on CHO-S-hSIGLEC7 cells (human, UniProt Q9Y286 19-353)
Description: as §1, §2

[5] = biological target: human SIGLEC9 on CHO-S-hSIGLEC9 cells (human, UniProt Q9Y336 18-348)
Description: as §1, §2

[6] = biological target: T3, human SIGLEC10 on CHO-S-hSIGLEC10 cells (human, UniProt Q96LC7 17-550)
T3 sequence: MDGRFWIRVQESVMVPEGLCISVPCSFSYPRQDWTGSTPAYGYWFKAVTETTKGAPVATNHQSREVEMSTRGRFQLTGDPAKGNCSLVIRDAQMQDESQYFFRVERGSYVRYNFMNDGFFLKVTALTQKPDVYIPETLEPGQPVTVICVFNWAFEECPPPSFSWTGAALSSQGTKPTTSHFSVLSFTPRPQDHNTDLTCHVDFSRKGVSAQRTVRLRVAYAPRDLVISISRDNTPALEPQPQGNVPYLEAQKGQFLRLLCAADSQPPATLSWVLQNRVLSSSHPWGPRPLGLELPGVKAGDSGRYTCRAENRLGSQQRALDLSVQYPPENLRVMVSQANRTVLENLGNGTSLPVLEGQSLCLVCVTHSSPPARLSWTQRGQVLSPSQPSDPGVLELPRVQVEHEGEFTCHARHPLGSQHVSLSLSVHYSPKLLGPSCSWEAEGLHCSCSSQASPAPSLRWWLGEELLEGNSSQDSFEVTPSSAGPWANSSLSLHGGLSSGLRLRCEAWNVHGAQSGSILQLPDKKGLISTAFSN
Description: as §1, §2

Sequence of human SIGLEC1 on CHO-S-hSIGLEC1 cells (Q9BZZ2 20-1641): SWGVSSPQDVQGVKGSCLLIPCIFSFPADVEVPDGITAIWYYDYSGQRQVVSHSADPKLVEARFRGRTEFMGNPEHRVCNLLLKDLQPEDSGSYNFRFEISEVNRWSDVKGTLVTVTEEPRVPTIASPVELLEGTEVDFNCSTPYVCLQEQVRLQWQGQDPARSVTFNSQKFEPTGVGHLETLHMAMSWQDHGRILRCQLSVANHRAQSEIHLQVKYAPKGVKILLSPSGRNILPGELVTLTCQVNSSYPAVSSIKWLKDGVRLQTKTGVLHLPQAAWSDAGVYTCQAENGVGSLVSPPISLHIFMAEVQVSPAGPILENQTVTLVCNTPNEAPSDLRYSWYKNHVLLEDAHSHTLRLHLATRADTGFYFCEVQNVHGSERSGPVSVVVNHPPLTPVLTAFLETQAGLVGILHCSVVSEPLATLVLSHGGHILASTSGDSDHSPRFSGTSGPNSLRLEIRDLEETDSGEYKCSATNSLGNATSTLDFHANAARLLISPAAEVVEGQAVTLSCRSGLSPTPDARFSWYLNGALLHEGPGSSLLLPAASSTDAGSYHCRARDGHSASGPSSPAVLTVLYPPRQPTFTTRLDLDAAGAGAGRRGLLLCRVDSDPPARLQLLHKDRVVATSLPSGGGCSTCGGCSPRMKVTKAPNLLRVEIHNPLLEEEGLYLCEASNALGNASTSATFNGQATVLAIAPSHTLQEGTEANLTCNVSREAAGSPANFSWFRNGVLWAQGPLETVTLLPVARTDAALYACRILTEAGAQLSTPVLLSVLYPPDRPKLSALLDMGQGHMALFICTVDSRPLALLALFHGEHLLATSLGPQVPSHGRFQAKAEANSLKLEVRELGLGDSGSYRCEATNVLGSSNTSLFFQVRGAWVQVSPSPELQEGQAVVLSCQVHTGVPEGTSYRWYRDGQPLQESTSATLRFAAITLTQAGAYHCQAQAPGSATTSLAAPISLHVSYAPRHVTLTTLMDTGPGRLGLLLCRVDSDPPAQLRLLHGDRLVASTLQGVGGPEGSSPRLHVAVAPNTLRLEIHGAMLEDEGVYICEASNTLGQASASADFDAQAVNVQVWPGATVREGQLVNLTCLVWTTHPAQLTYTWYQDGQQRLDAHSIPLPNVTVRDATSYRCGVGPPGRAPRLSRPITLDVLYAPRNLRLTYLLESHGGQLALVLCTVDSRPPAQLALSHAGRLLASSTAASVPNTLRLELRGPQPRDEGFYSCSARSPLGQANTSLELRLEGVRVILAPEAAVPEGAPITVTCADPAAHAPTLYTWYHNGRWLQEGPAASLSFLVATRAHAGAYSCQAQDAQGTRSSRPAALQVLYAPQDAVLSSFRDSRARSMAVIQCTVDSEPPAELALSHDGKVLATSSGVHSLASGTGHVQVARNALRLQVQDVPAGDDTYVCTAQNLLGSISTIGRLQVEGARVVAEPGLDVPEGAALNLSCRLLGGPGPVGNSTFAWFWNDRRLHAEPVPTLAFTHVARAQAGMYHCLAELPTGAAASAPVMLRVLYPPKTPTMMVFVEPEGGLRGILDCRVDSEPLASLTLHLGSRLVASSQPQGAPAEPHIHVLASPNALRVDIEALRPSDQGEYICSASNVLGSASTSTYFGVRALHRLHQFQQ
Sequence of human SIGLEC9 on CHO-S-hSIGLEC9 cells (Q9Y336 18-348): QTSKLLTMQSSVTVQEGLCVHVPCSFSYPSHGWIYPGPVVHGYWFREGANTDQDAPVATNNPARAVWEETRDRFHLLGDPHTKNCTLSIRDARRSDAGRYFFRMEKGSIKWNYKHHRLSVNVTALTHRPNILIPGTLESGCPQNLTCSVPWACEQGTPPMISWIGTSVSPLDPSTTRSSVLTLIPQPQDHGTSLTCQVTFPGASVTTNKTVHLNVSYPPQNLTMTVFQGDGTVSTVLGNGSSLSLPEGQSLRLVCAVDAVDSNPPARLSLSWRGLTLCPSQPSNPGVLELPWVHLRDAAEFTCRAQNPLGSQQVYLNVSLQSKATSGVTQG
Sequence of human SIGLEC7 on CHO-S-hSIGLEC7 cells (Q9Y286 19-353): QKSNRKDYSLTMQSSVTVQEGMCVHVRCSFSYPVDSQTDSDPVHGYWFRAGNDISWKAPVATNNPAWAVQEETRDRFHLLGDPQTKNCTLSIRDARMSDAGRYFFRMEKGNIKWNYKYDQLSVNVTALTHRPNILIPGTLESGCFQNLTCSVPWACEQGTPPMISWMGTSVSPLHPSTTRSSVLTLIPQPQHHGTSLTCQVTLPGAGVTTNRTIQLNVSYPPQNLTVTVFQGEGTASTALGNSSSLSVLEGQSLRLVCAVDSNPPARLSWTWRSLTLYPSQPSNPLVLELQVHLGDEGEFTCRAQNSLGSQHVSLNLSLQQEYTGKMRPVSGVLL

- Percentage of Positive Cells [1]: 1.3%
- binding result [1]: no binding
- Percentage of Positive Cells [2]: 1.8%
- binding result [2]: no binding
- Percentage of Positive Cells [3]: 1.1%
- binding result [3]: no binding
- Percentage of Positive Cells [4]: 1%
- binding result [4]: no binding
- Percentage of Positive Cells [5]: 0.7%
- binding result [5]: no binding
- Percentage of Positive Cells [6]: 1.6%
- binding result [6]: no binding
B1: anti-SIGLEC15 antibody 23F4 (antibody, human IgG1, V domains shown)
VH: QVQLQQWGAGLLKPSETLSLTCAVYGGSFSGYFWSWIRQPPGKGLEWIGEINHSGSTNYNPSLKSRVTLSVDTSKNQFSLKLSSVTAADTAVYYCAREGDSSSWGNWFDPWGQGTLVTVSS
VL: EIVLTQSPGTLSLSPGERATLSCRASQSVSSSYLAWYQQKPGQAPRFLIYGASSRATGIPDRFSGSGSGTDFTLTISRLEPEDFAVYYCQQFGNSPLTFGGGTKVEIK

- Percentage of Positive Cells [1]: 0.2%
- binding result [1]: no binding
- Percentage of Positive Cells [2]: 0.3%
- binding result [2]: no binding
- Percentage of Positive Cells [3]: 0.1%
- binding result [3]: no binding
- Percentage of Positive Cells [4]: 0.4%
- binding result [4]: no binding
- Percentage of Positive Cells [5]: 0.1%
- binding result [5]: no binding
- Percentage of Positive Cells [6]: 1.5%
- binding result [6]: no binding
B2: anti-SIGLEC15 antibody 10C9 (antibody, human IgG1, V domains shown)
VH: QVQLVQSGAEVKKPGATVKVSCKASGYTFTNYGFSWVRQAPGQGLEWMGWINTYNDNTNYAQKFQGRVTMTTDTSTSTAYMELRSLRSDDTAVYYCARDGLWFGELPHYFDYWGQGTLVTVSS
VL: DIQLTQSPLSSPVTLGQPASISCRSSQSLVNSDGETFLSWLQQRPGQPPRLLIYKISNRFSGVPDRFSGSGAGTDFTLKISRVEAEDVGVYYCMQATQFPHTFGQGTKLEIK

- Percentage of Positive Cells [1]: 0.2%
- binding result [1]: no binding
- Percentage of Positive Cells [2]: 0%
- binding result [2]: no binding
- Percentage of Positive Cells [3]: 0%
- binding result [3]: no binding
- Percentage of Positive Cells [4]: 0.2%
- binding result [4]: no binding
- Percentage of Positive Cells [5]: 0.3%
- binding result [5]: no binding
- Percentage of Positive Cells [6]: 1.4%
- binding result [6]: no binding
B3: anti-SIGLEC15 antibody 10A7 (antibody, human IgG1, V domains shown)
VH: EVQLVQSGGGLVQPGGSLRLSCAASGFTFSNYEMNWVRQAPGKGLEWISYISNSGSTIYYADSVKGRFTISRDDAKNSLYLQMNSLRAEDTAVYYCAREDYDSSGYYWFDPWGQGTPVTVSS
VL: DIQLTQSPSSVSASVGDRVTITCRASQGISSWLAWYQQKPGKAPKLLIYAASSLQSGVPSRFSGSGSGTDFTLTINSLQPEDFATYYCQQTNSFPLTFGGGTKVEIK
